# In patent US6495144:
# Columns and labels:
# GAL4-CBF1 (KLV249AAA) = GAL4-CBF1 (KLV249AAA) (UniProt P04386); assay: cell-based or functional assay
# CBF1/RBPJk [1] = target: CBF1/RBPJk (UniProt Q06330); assay: cell-based or functional assay
# CBF1/RBPJk [2] = target: CBF1/RBPJk (UniProt Q06330); assay: EMSA supershift with heparin-agarose purified CBF1 and Cp CBF1 site probe; phosphoimager, relative to wild-type EBNA2(252-425)
# GAL4CBF1 (EEF233AAA) = GAL4CBF1 (EEF233AAA) (UniProt P04386); assay: cell-based or functional assay
# GAL4-CBF1 (wild-type) = GAL4-CBF1 (wild-type) (UniProt P04386); assay: cell-based or functional assay
# [3] = tested on: CBF1 + EBNA2 del252-366 del252-366 (Homo sapiens / Epstein-Barr virus); assay: EMSA; conditions: no supershifted complex
# [4] = tested on: CBF1 + EBNA2 LGL389SRT (CR7) LGL389SRT (Homo sapiens / Epstein-Barr virus); assay: EMSA; conditions: supershifted complex relative to wild-type
# [5] = tested on: CBF1 + EBNA2 del252-309,398-425 del252-309,del398-425 (Homo sapiens / Epstein-Barr virus); assay: EMSA; conditions: no supershifted complex
# [6] = tested on: CBF1 + EBNA2 del343-425 del343-425 (Homo sapiens / Epstein-Barr virus); assay: EMSA; conditions: no stable supershifted complex; partially competed CBF1 complex
# [7] = tested on: CBF1 + EBNA2 del344-357 del344-357 (Homo sapiens / Epstein-Barr virus); assay: EMSA; conditions: supershifted complex relative to wild-type
# [8] = tested on: CBF1 + EBNA2 PI326SR (CR6) PI326SR (Homo sapiens / Epstein-Barr virus); assay: EMSA; conditions: supershifted complex relative to wild-type
# [9] = tested on: CBF1 + EBNA2 II307SR (CR5) II307SR (Homo sapiens / Epstein-Barr virus); assay: EMSA; conditions: supershifted complex relative to wild-type
# [10] = tested on: CBF1 + EBNA2 WW323SR (CR6) WW323SR (Homo sapiens / Epstein-Barr virus); assay: EMSA; conditions: no supershifted complex
# [11] = tested on: CBF1 + type A EBNA2 252-425 complex (Homo sapiens / Epstein-Barr virus); assay: EMSA; conditions: supershifted EBNA2/CBF1 complex, reference; EBNA2 tethered through CBF1
# [12] = tested on: CBF1 + EBNA2 GP320SR (CR6) GP320SR (Homo sapiens / Epstein-Barr virus); assay: EMSA; conditions: supershifted complex relative to wild-type
# [13] = tested on: CBF1 + EBNA2 SR360VD (PKC) SR360VD (Homo sapiens / Epstein-Barr virus); assay: EMSA; conditions: supershifted complex relative to wild-type
# [14] = tested on: CBF1 + EBNA2 del376-425 del376-425 (Homo sapiens / Epstein-Barr virus); assay: EMSA; conditions: supershifted complex relative to wild-type
# Sequence of CBF1/RBPJk (Q06330 whole entry, the tested form may be a part): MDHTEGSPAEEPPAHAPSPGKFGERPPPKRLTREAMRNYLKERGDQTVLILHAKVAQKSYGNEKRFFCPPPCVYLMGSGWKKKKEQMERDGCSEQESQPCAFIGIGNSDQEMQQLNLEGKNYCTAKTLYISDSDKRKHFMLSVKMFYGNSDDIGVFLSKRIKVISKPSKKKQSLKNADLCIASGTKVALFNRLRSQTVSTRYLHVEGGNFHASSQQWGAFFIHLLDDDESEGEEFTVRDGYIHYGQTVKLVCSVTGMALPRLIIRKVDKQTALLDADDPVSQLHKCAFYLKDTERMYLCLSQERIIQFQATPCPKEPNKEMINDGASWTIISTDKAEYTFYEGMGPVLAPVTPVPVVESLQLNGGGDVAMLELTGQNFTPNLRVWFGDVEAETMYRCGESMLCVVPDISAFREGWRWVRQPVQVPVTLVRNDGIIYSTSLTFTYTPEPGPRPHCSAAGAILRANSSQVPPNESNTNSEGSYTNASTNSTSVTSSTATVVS
substance,measurement,setting,value
EBNA2 (effector of Table 2) (from UniProt P12978 1-487),Relative CAT Activity (relative to CAT reporter alone),GAL4-CBF1 (KLV249AAA),21
full-length EBNA2 WW323SR (CR6) (from UniProt P12978 1-487),% Transactivation,CBF1/RBPJk [1],0%
full-length EBNA2 GP320SR (CR6) (from UniProt P12978 1-487),% Transactivation,CBF1/RBPJk [1],120%
"EBNA2 252-425 del252-309,398-425 (from UniProt P12978 310-397)",% Complex formation,CBF1/RBPJk [2],< 1%
"wild-type EBNA2 (full-length, type A) (from UniProt P12978 1-487)",% Transactivation,CBF1/RBPJk [1],100%
full-length EBNA2 SR360VD (PKC) (from UniProt P12978 1-487),% Transactivation,CBF1/RBPJk [1],110%
EBNA2 252-425 del376-425 (from UniProt P12978 252-375),% Complex formation,CBF1/RBPJk [2],10%
Notch1IC (from UniProt Q01705 1751-2531) (receptor),Relative CAT Activity (relative to CAT reporter alone),GAL4CBF1 (EEF233AAA),4.2
same,Relative CAT Activity (relative to CAT reporter alone),GAL4-CBF1 (KLV249AAA),1.3
same,Relative CAT Activity (relative to CAT reporter alone),GAL4-CBF1 (wild-type),4.9
Cp CBF1 binding site 30-bp probe,binding signal,[3],< 1%
same,binding signal,[4],50%
same,binding signal,[5],< 1%
same,binding signal,[6],< 1%
same,binding signal,[7],100%
same,binding signal,[8],5%
same,binding signal,[9],20%
same,binding signal,[10],< 1%
same,binding signal,[11],100%
same,binding signal,[12],90%
same,binding signal,[13],60%
same,binding signal,[14],10%
full-length EBNA2 LGL389SRT (CR7) (from UniProt P12978 1-487),% Transactivation,CBF1/RBPJk [1],100%
full-length EBNA2 II307SR (CR5) (from UniProt P12978 1-487),% Transactivation,CBF1/RBPJk [1],20%
EBNA2 252-425 del344-357 (from UniProt P12978 252-343; P12978 358-425),% Complex formation,CBF1/RBPJk [2],100%
full-length EBNA2 PI326SR (CR6) (from UniProt P12978 1-487),% Transactivation,CBF1/RBPJk [1],2%
same,"transactivation at the highest levels of effector DNA (Cp-CAT, DG75 cells)",CBF1/RBPJk [1],20%
EBNA2 252-425 del252-366 (from UniProt P12978 367-425),% Complex formation,CBF1/RBPJk [2],< 1%
full-length EBNA2 del344-357 (from UniProt P12978 1-487),% Transactivation,CBF1/RBPJk [1],150%
Notch2IC (from UniProt Q9QW30 1789-2471) (receptor),Relative CAT Activity (relative to CAT reporter alone),GAL4CBF1 (EEF233AAA),4.5
same,Relative CAT Activity (relative to CAT reporter alone),GAL4-CBF1 (KLV249AAA),1.3
same,Relative CAT Activity (relative to CAT reporter alone),GAL4-CBF1 (wild-type),5.7
EBNA2 252-425 II307SR (CR5) (from UniProt P12978 252-425),% Complex formation,CBF1/RBPJk [2],20%
EBNA2 252-425 del343-425 (from UniProt P12978 252-342),% Complex formation,CBF1/RBPJk [2],< 1%
